Test results from IntAct's records for PubMed 29039417.

B1: Protein PTHB1 (Homo sapiens), Q3SYG4 (parent)
chain: MSLFKARDWWSTILGDKEEFDQGCLCLANVDNSGNGQDKIIVGSFMGYLRIFSPHPAKTGDGAQAEDLLLEVDLRDPVLQVEVGKFVSGTEMLHLAVLHSRKLCVYSVSGTLGNVEHGNQCQMKLMYEHNLQRTACNMTYGSFGGVKGRDLICIQSMDGMLMVFEQESYAFGRFLPGFLLPGPLAYSSRTDSFLTVSSCQQVESYKYQVLAFATDADKRQETEQQKLGSGKRLVVDWTLNIGEQALDICIVSFNQSASSVFVLGERNFFCLKDNGQIRFMKKLDWSPSCFLPYCSVSEGTINTLIGNHNNMLHIYQDVTLKWATQLPHIPVAVRVGCLHDLKGVIVTLSDDGHLQCSYLGTDPSLFQAPNVQSRELNYDELDVEMKELQKIIKDVNKSQGVWPMTEREDDLNVSVVVSPNFDSVSQATDVEVGTDLVPSVTVKVTLQNRVILQKAKLSVYVQPPLELTCDQFTFEFMTPDLTRTVSFSVYLKRSYTPSELEGNAVVSYSRPTDRNPDGIPRVIQCKFRLPLKLICLPGQPSKTASHKITIDTNKSPVSLLSLFPGFASQSDDDQVNVMGFHFLGGARITVLASKTSQRYRIQSEQFEDLWLITNELILRLQEYFEKQGVKDFACSFSGSIPLQEYFELIDHHFELRINGEKLEELLSERAVQFRAIQRRLLARFKDKTPAPLQHLDTLLDGTYKQVIALADAVEENQGNLFQSFTRLKSATHLVILLIALWQKLSADQVAILEAAFLPLQEDTQELGWEETVDAAISHLLKTCLSKSSKEQALNLNSQLNIPKDTSQLKKHITLLCDRLSKGGRLCLSTDAAAPQTMVMPGGCTTIPESDLEERSVEQDSTELFTNHRHLTAETPRPEVSPLQGVSE
partner: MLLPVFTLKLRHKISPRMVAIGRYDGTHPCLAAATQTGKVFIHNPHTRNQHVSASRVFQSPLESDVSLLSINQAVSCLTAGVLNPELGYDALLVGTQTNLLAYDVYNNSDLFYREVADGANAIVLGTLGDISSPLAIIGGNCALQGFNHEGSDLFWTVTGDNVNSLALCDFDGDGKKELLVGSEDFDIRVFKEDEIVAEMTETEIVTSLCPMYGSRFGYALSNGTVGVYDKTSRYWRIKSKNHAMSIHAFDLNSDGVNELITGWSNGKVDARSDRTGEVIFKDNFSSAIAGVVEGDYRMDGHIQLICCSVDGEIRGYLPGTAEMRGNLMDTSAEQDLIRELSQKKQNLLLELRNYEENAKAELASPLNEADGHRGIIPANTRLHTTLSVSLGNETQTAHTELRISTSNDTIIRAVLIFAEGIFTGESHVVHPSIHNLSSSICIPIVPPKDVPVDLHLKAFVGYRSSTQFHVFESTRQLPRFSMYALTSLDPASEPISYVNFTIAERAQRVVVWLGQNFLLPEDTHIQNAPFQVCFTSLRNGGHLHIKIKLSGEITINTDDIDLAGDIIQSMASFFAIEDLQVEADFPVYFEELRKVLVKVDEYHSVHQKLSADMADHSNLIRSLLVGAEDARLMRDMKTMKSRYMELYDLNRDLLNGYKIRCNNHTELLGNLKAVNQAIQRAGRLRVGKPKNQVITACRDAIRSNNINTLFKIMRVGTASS

Variants of: B1
Conditions: with bbs2_human BBS2, Q9BXC9

Q: How did the “effect of a mutation on the interaction” value turn out when L467K was run?
A: with no effect

Q: For L467A, which “effect of a mutation on the interaction” value is on record?
A: with no effect

Q: With L467E as the variant, how does the “effect of a mutation on the interaction” value read?
A: with no effect

Q: For V416E, which “effect of a mutation on the interaction” value is on record?
A: with no effect

Q: How did the “effect of a mutation on the interaction” value turn out when V416A was run?
A: with no effect

Q: With V416K as the variant, how does the “effect of a mutation on the interaction” value read?
A: with no effect

Q: With Q453K as the variant, how does the “effect of a mutation on the interaction” value read?
A: with no effect

Q: Which “effect of a mutation on the interaction” value does the source give for Q453A here?
A: with no effect

Q: Which “effect of a mutation on the interaction” value does the source give for Q453E here?
A: with no effect

Q: How did the “effect of a mutation on the interaction” value turn out when V424E was run?
A: with no effect

Q: Which “effect of a mutation on the interaction” value does the source give for V424K here?
A: with no effect

Q: How did the “effect of a mutation on the interaction” value turn out when V424A was run?
A: with no effect

Q: How did the “effect of a mutation on the interaction” value turn out when V437A was run?
A: with no effect

Q: Which “effect of a mutation on the interaction” value does the source give for V437K here?
A: with no effect

Q: V437E was tested. Which “effect of a mutation on the interaction” value did it give?
A: with no effect

Q: V432A was tested. Which “effect of a mutation on the interaction” value did it give?
A: with no effect

Q: For V432K, which “effect of a mutation on the interaction” value is on record?
A: with no effect

Q: How did the “effect of a mutation on the interaction” value turn out when V432E was run?
A: with no effect

Q: How did the “effect of a mutation on the interaction” value turn out when T441K was run?
A: with no effect

Q: For T441E, which “effect of a mutation on the interaction” value is on record?
A: with no effect

Q: For T441A, which “effect of a mutation on the interaction” value is on record?
A: with no effect

Q: With T434A as the variant, how does the “effect of a mutation on the interaction” value read?
A: with no effect

Q: How did the “effect of a mutation on the interaction” value turn out when T434E was run?
A: with no effect

Q: Which “effect of a mutation on the interaction” value does the source give for T434K here?
A: with no effect

Q: How did the “effect of a mutation on the interaction” value turn out when T468E was run?
A: with no effect

Q: Which “effect of a mutation on the interaction” value does the source give for T468K here?
A: with no effect

Q: T468A was tested. Which “effect of a mutation on the interaction” value did it give?
A: with no effect

Q: For I451E, which “effect of a mutation on the interaction” value is on record?
A: with no effect

Q: Which “effect of a mutation on the interaction” value does the source give for I451K here?
A: with no effect

Q: Which “effect of a mutation on the interaction” value does the source give for I451A here?
A: with no effect

Q: Which “effect of a mutation on the interaction” value does the source give for K443E here?
A: with no effect

Q: K443A was tested. Which “effect of a mutation on the interaction” value did it give?
A: with no effect

Q: Which “effect of a mutation on the interaction” value does the source give for S423E here?
A: with no effect

Q: With S423A as the variant, how does the “effect of a mutation on the interaction” value read?
A: with no effect

Q: With S423K as the variant, how does the “effect of a mutation on the interaction” value read?
A: with no effect

Q: For R449K, which “effect of a mutation on the interaction” value is on record?
A: with no effect

Q: Which “effect of a mutation on the interaction” value does the source give for R449E here?
A: with no effect

Q: For R449A, which “effect of a mutation on the interaction” value is on record?
A: with no effect

Q: For Q447A, which “effect of a mutation on the interaction” value is on record?
A: with no effect

Q: For Q447E, which “effect of a mutation on the interaction” value is on record?
A: with no effect

Q: Q447K was tested. Which “effect of a mutation on the interaction” value did it give?
A: with no effect

Q: R407K was tested. Which “effect of a mutation on the interaction” value did it give?
A: with no effect

Q: Which “effect of a mutation on the interaction” value does the source give for A455E here?
A: with no effect

Q: A455K was tested. Which “effect of a mutation on the interaction” value did it give?
A: with no effect

Q: L457E was tested. Which “effect of a mutation on the interaction” value did it give?
A: with no effect

Q: L457K was tested. Which “effect of a mutation on the interaction” value did it give?
A: with no effect

Q: For L457A, which “effect of a mutation on the interaction” value is on record?
A: with no effect

Q: With V417K as the variant, how does the “effect of a mutation on the interaction” value read?
A: with no effect

Q: With V417A as the variant, how does the “effect of a mutation on the interaction” value read?
A: with no effect

Q: With V417E as the variant, how does the “effect of a mutation on the interaction” value read?
A: with no effect

Q: Which “effect of a mutation on the interaction” value does the source give for L465K here?
A: with no effect

Q: How did the “effect of a mutation on the interaction” value turn out when L465E was run?
A: with no effect

Q: For L465A, which “effect of a mutation on the interaction” value is on record?
A: with no effect

Q: How did the “effect of a mutation on the interaction” value turn out when P463E was run?
A: with no effect

Q: P463K was tested. Which “effect of a mutation on the interaction” value did it give?
A: with no effect

Q: Which “effect of a mutation on the interaction” value does the source give for P463A here?
A: with no effect

Q: How did the “effect of a mutation on the interaction” value turn out when P438K was run?
A: with no effect

Q: Which “effect of a mutation on the interaction” value does the source give for P438E here?
A: with no effect

Q: Which “effect of a mutation on the interaction” value does the source give for P438A here?
A: with no effect

Q: With E431K as the variant, how does the “effect of a mutation on the interaction” value read?
A: with no effect

Q: E431A was tested. Which “effect of a mutation on the interaction” value did it give?
A: with no effect

Q: For L411E, which “effect of a mutation on the interaction” value is on record?
A: with no effect

Q: How did the “effect of a mutation on the interaction” value turn out when L411A was run?
A: with no effect

Q: L411K was tested. Which “effect of a mutation on the interaction” value did it give?
A: with no effect

Q: For V413K, which “effect of a mutation on the interaction” value is on record?
A: with no effect

Q: With V413A as the variant, how does the “effect of a mutation on the interaction” value read?
A: with no effect

Q: V413E was tested. Which “effect of a mutation on the interaction” value did it give?
A: with no effect

Q: For N420K, which “effect of a mutation on the interaction” value is on record?
A: with no effect

Q: With N420A as the variant, how does the “effect of a mutation on the interaction” value read?
A: with no effect

Q: N420E was tested. Which “effect of a mutation on the interaction” value did it give?
A: with no effect

Q: For S458A, which “effect of a mutation on the interaction” value is on record?
A: with no effect

Q: Which “effect of a mutation on the interaction” value does the source give for S458E here?
A: with no effect

Q: S458K was tested. Which “effect of a mutation on the interaction” value did it give?
A: with no effect

Q: How did the “effect of a mutation on the interaction” value turn out when V430A was run?
A: with no effect

Q: Which “effect of a mutation on the interaction” value does the source give for V430E here?
A: with no effect

Q: With V430K as the variant, how does the “effect of a mutation on the interaction” value read?
A: with no effect

Q: With L446E as the variant, how does the “effect of a mutation on the interaction” value read?
A: with no effect

Q: With L446K as the variant, how does the “effect of a mutation on the interaction” value read?
A: with no effect

Q: Which “effect of a mutation on the interaction” value does the source give for L446A here?
A: with no effect

Q: For V415K, which “effect of a mutation on the interaction” value is on record?
A: with no effect

Q: Which “effect of a mutation on the interaction” value does the source give for V415E here?
A: with no effect

Q: How did the “effect of a mutation on the interaction” value turn out when V415A was run?
A: with no effect

Q: How did the “effect of a mutation on the interaction” value turn out when K456E was run?
A: with no effect

Q: How did the “effect of a mutation on the interaction” value turn out when K456A was run?
A: with no effect

Q: Which “effect of a mutation on the interaction” value does the source give for V440K here?
A: with no effect

Q: V440A was tested. Which “effect of a mutation on the interaction” value did it give?
A: with no effect

Q: With V440E as the variant, how does the “effect of a mutation on the interaction” value read?
A: with no effect

Q: Which “effect of a mutation on the interaction” value does the source give for N448A here?
A: with no effect

Q: For N448K, which “effect of a mutation on the interaction” value is on record?
A: with no effect

Q: How did the “effect of a mutation on the interaction” value turn out when N448E was run?
A: with no effect

Q: D435E was tested. Which “effect of a mutation on the interaction” value did it give?
A: with no effect

Q: D435A was tested. Which “effect of a mutation on the interaction” value did it give?
A: with no effect

Q: How did the “effect of a mutation on the interaction” value turn out when D435K was run?
A: with no effect
